Reference: patent US20250154240A1, “ANTI-HUMAN CXCL1 ANTIBODY” (CHIOME BIOSCIENCE INC., priority 2022, published 2025)

B1: 1A-7H10: mouse monoclonal anti-HuCXCL1 antibody clone; VH SEQ ID NO: 1, VL SEQ ID NO: 5 (antibody, listed as Mus musculus, V domains shown)
VH: QVQLKESGPVLVAPSQSLSITCSVSGFSSTTYGVHWVRQPPGQGLEWLGVIWAGGSTNYNSALMSRLSISKDNSKSQVFLKMNSLQTDDTAMYYCATQYHYPFAYWGQGTLVTVSA
VL: NIVMTQSPKSMSMSVGERVTLSCKASENVGIYVSWYQQKPEQSPKLMIYGASNRNTGVPDRFTGSGSATDFTLTISSVQAEDLADYYCGQSYSYPLTFGAGTKLELK
B2: 4A-2F7: mouse monoclonal anti-HuCXCL1 antibody clone; VH SEQ ID NO: 9, VL SEQ ID NO: 13 (antibody, listed as Mus musculus, V domains shown)
VH: QVTLKESGPGILKPSQTLSLTCSFSGFSLSTSGMGVDWIRQPSGKGLEWLAHIWWDDDKYYNPSLKSQLTISKDTSRNQVFLKITSVDTADTATYYCARSYGYDMDYYAMDYWGQGTSVTVSS
VL: DIQMTQSPSSLSASLGERVSLTCRASQEISGYLSWLQQKPDGTIKRLIYAASTLDSGVPKRFSGSRSGSDYSLTISSLESEDFADYYCLQYASYPPWTFGGGTKLEIK
B3: 028-8-12: human antibody against CXCL1 from the human ADLib technique; VH SEQ ID NO: 25, VL SEQ ID NO: 29 (antibody, listed as Gallus gallus, V domains shown)
VH: EVQLLESGGGLVQPGGSLRLSCAASGFTFSELSMSWVRQAPGKGLEWVSAISGSGGSTYYADSVKGRFTISRDNSKNTLYLQMNSLRAEDTAVYYCAREGGRLEPYYYYYAMDVWGQGTPVTVSS
VL: DIQMTQSPSSLSASVGDRVTITCRASQSISDNLHWYQQKPGKAPKLLIYDASNLESGVPSRFSGSGSGTDFTLTINSLQPEDFATYYCQQYYSTPLTFGQGTKLEIK
B4: 5A-5E11: mouse monoclonal anti-HuCXCL1 antibody clone; VH SEQ ID NO: 17, VL SEQ ID NO: 21 (antibody, listed as Mus musculus, V domains shown)
VH: QVQLQQSGAELVRPGSSVKISCKASGYAFSDYWMNWVKQRPGQGLEWIGQIYPGDGDTNYNGKFKGKGTLTADKSSSTAYMQLNSLTSEDSAVYFCARERDYDVAMDYWGQGTSVTVSS
VL: DIQMTQSPSSLSASLGGKVTITCKASQDINKYIAWFQHKPGKGPRLVIHYTSILQPGIPSRFSGVGSGRDYSFSIRNLEPEDIATYYCLQYDNLPWTFGGGTKLEIK
B5: Hu5A-5E11: humanized antibody VH1/VL1; VH SEQ ID NO: 76, VL SEQ ID NO: 78 (antibody, V domains shown)
VH: QVQLVQSGAEVKKPGSSVKVSCKASGYAFSDYWMNWVRQAPGQGLEWIGQIYPGSGDTNYNAKFKGKGTITADKSTSTAYMELSSLRSEDTAVYYCARERDYDVAMDYWGQGTTVTVSS
VL: DIQMTQSPSSLSASVGDRVTITCKASQDINKYIAWFQQKPGKAPKLVIHYTSILQPGVPSRFSGSGSGTDYTFTISSLQPEDIATYYCLQYDNLPWTFGGGTKVEIK

Experiments:
CyCXCL1 = assay: Ca2+ Flux assay, CyCXCL1 neutralizing activity in AequoScreen/CXCR2 cells; assay type: cell-based, cynomolgus monkey; conditions: CyCXCL1 100 ng per ml; antibody 10 μg per ml
Chain of CyCXCL1 (as listed by the source): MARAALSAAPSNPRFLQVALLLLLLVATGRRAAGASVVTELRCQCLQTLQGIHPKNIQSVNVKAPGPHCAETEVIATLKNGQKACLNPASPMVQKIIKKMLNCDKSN
Chain of CyCXCL1 (P25025 whole entry partner): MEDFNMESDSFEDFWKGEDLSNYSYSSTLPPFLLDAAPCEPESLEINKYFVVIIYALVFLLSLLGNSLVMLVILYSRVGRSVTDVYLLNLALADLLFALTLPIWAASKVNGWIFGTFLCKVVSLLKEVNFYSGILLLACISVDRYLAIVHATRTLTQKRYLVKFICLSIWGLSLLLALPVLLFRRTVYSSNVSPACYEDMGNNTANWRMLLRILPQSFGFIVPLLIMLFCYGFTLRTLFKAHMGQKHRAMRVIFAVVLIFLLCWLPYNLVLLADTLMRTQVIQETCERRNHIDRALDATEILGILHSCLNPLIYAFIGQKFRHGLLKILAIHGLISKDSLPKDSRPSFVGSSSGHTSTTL
Description: For evaluation of neutralizing activity against CyCXCL1, CyCXCL1-induced changes in intracellular calcium ions in AequoScrenn/CXCR2 cells were measured as the luminescence intensity of aequorin.
AequoScrenn/CXCR2 cells were adjusted in the same manner as shown in [2-2] above. After CyCXCL1 was added to 96-well plates in an amount of 100 ng per ml, purified antibodies were each added in an amount of 10 μg per ml, and the plates were allowed to stand at room temperature for 30 minutes. To these plates, the AequoScree/CXCR2 cell suspension was added in a volume of 50 μL per well, immediately followed by measurement of luminescence intensity.
An antibody found to completely suppress CyCXCL1-induced luminescence from aequorin was determined to have cross-reactivity and indicated with “o” while an antibody found to not completely suppress luminescence from aequorin was indicated with “x” in Table A above.

human CXCL2 = target: T1, human CXCL2 (Homo sapiens, UniProt P19875); assay: Binding to human CXCL2
T1 sequence (P19875 35-107): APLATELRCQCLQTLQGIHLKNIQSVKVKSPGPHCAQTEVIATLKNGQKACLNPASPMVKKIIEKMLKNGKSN

human CXCL3 = target: T2, human CXCL3 (Homo sapiens, UniProt P19876); assay: Binding to human CXCL3
T2 sequence (P19876 35-107): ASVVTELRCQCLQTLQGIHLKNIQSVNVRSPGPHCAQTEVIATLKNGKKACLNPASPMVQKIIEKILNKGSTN

[1] = tested on: OCUM-12 gastric cancer cell line; assay: Antitumor activity test, model with OCUM-12 orthotopic transplantation (prevention model); assay type: in vivo, mouse; conditions: for Antitumor activity (tumor growth, tumor size): 20 mg/kg intraperitoneally twice a week from the day following transplantation
Description: A model with OCUM-12 orthotopic transplantation was prepared to evaluate the above 4 types of candidate antibodies for their in vivo CXCR2 migration inhibitory activity and antitumor activity in a xenograft model with OCUM-12 orthotopic transplantation.
For use as mice, female nude mice (BALB/cAJcl-nu/nu) at 5 to 6 weeks of age were purchased from CLEA Japan, Inc., Japan. For use as human cancer cells, a gastric cancer cell line, OCUM-12, was provided by University Public Corporation Osaka, Japan.
OCUM-12 cells were cultured in D-MED medium (FUJIFILM Wako Pure Chemical Corporation, Japan) supplemented with 10% fetal bovine serum (FBS; Sigma-Aldrich Corporation) and 1/100 volumes of a penicillin-streptomycin mixture (Nacalai Tesque, Inc., Japan). The cells to be transplanted were detached with 0.25% trypsin/0.02% EDTA (Thermo Fisher Scientific) and washed with PBS, and 4× 10^5 cells per mouse were transplanted into the gastric wall of each mouse.
On the day following the above transplantation, the mice were randomized into groups (8 or 6 mice per group) and intraperitoneally administered with PBS as a control and with 4 types of candidate antibodies (1A-7H10, 4A-2F7, 5A-5E11 and 028-8-12) and 3 types of non-candidate antibodies (1A-3C6, 1A-2H3 and 4A-5B11) at a dose of 20 mg/kg. In addition, mouse IgG1 as a control was intraperitoneally administered at a dose of 20 mg/kg, and 3 types of antibodies (5A-5E11, 1A-4H10 and 4A-7G7) among the candidate antibodies were intraperitoneally administered at a dose of 20 mg/kg. The administration of these antibodies was then continued with a frequency of twice a week until the completion of the test. After 3 weeks had passed from the transplantation, the mice were sacrificed, and the short- and long-axis diameters of tumors formed in their gastric walls were each measured with a caliper. The tumor size was calculated according to the following: 1/2 short-axis diameter (mm)×1/2 long-axis diameter (mm)×3.14.
Navarixin is among small molecular compounds that act on CXCR2 and inhibit CXCL1-CXCR2 signaling. […] Then, using a model with OCUM-12 orthotopic transplantation, the migration inhibition of CXCR2-expressing cells and antitumor activity were evaluated in vivo for Navarixin. As a vehicle, ultrapure water containing 20% 2-hydroxypropyl-β-cyclodextrin (FUJIFILM Wako Pure Chemical Corporation, Japan) was used. Navarixin (MedChemExpress) was dissolved in ultrapure water containing 20% 2-hydroxypropyl-β-cyclodextrin, and orally administered at a dose of 100 mg/kg/day in a schedule of once a day for 5 consecutive days, followed by a 2-day withdrawal.
The humanized antibodies were evaluated for their in vivo antitumor activity and CXCR2 migration inhibitory activity in a xenograft model with OCUM-12 orthotopic transplantation. Procedures for the evaluation are shown below.
For use as mice, female nude mice (BALB/cAJcl-nu/nu) at 5 to 6 weeks of age were purchased from CLEA Japan, Inc., Japan. For use as human cancer cells, gastric cancer cell line, OCUM-12, was provided by Osaka Metropolitan University, Japan.
OCUM-12 cells were cultured in D-MED medium (FUJIFILM Wako Pure Chemical Corporation, Japan) supplemented with 10% fetal bovine serum (hereinafter abbreviated as FBS; Sigma-Aldrich Corporation) and 1/100 volumes of a penicillin-streptomycin mixture (Nacalai Tesque, Inc., Japan). The cells to be transplanted were detached with 0.25% trypsin/0.02% EDTA (Thermo Fisher Scientific) and washed with PBS, and 4×10^5 cells per mouse were transplanted into the gastric wall of each mouse. On the day following the transplantation, the mice were randomized into groups (8 mice per group) and intraperitoneally administered with test antibodies at a dose of 400 μg/head. PBS was intraperitoneally administered in a volume of 200 μL with a frequency of twice a week for 3 weeks, starting from the day following the transplantation. […]

Row | Molecule | CyCXCL1 neutralizing activity Ca^2+ Flux assay (CyCXCL1) | Binding to human CXCL2 (human CXCL2) | Binding to human CXCL3 (human CXCL3) | Antitumor activity (tumor growth, tumor size) ([1]; 3 weeks, compared to PBS) | Antitumor activity (tumor area) ([1]; 400 μg/head intraperitoneally twice a week, 3 weeks, compared to hIgG1 antibody) | Dose significantly suppressing the tumor area ([1]; prevention model, compared to PBS)
1 | B1 | ∘ | also bind | also bind | significantly suppress tumor growth | – | –
2 | B2 | ∘ | also bind | also bind | significantly suppress tumor growth | – | –
3 | B3 | ∘ | also bind | also bind | significantly suppress tumor growth | – | –
4 | B4 | ∘ | also bind | also bind | significantly suppress tumor growth | – | –
5 | B5 | – | – | – | – | significantly suppress an increase in the tumor area | ≥ 60 μg/head
